The target in assay [1] is I^125-αDTX-labelled VGKCs (Kv1 complexes) in digitonin-solubilised rabbit cortex extract.
Assay [2] shares this target. The source holds these as a separate data set.

Take “goat anti Lgi1 antibody (Santa Cruz C19 sc-9583 and N18 sc-9581)”: the percent of αDTX binding sites immunoprecipitated in assay [1] was determined as 61%. The percent of total I^125-αDTX binding sites precipitated in assay [2] was > 60%.

The values are drawn from patent US9188587.
